# Assay results from the nanobody polyreactivity screen of Harvey et al. (2022).
# Experiment: yeast display, Sf9 membrane polyspecificity reagent, FACS + sequencing; frameworks hold sequencing errors
# In short: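 Synthetic nanobody libraries on Saccharomyces cerevisiae BJ5465 were galactose-induced for 36–48 hours, stained 1 hour at 4 °C with 10% biotinylated, detergent-solubilized Sf9 membrane reagent and enriched on streptavidin microbeads. FACS then separated cells into low and high (top ~1%) gates by anti-HA (expression) and streptavidin (reagent binding) fluorescence. Genes were colony-PCR amplified, MiSeq 2 × 250 sequenced and CDR-length filtered. A clone's polyreactivity label is that of its gate of origin.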
row,Sequence,polyreactivity (PSR sort gate)
1,QVQLVESGGGLVQAGGSLRLSCAASGIIFPTYAMGWYRQAPGKERELVAAITSGGSTYYADSVKGRFTISRDNAKNTVYLQMNSLKPEDTAVYYCAAAYLGYGAVQPSYEGGYWGQGTQVTVSS,low polyreactivity
2,QVQLVESGGGLVQAGGSLRLSCAASGIIFPTYDMGWYRQAPGKERELVAAITWSTGSTTYADSVKGRFTISRDNAKNTVYLQMNSQKPEDTAVYYCNKDSEGSGGEFDYWGQGTQVTVSS,low polyreactivity
3,QVQLVESGGGLVQAGGSLRLSCAASGIIFPVYAMGWYRQAPGKERELVATIDSGGGTYYADSVKGRFTISRDNAKNTVYLQMNSLKPEDTAVYYCAADLWVGLVSLWDGYVEYDYWGQGTQVTVSS,low polyreactivity
4,QVQLVESGGGLVQAGGSLRLSCAASGIIFPYYAMGWYRPAPGKERELVAASTGRGTSTYADSVKGRFTISRDNAKNTVYLQMNSRKPEDTAVYYCAAVGWFADFLFSDINGYYWGQGTQVTVSS,low polyreactivity
5,QVQLVESGGGLVQAGGSLRLSCAASGIIFPYYAMGWYRQAPGKERELVAGISSSGGITYADSVKGRFTISRDNAKNTVYLQMNSLKPEDTAVYYCAARYPARGTLYYWGQGTQVTVSS,low polyreactivity
6,QVQLVESGGGLVQAGGSLRLSCAASGIIFPYYAMGWYRQAPGKERELVAGISWSGGSTYYADSVKGRFTISRDNAKNTVYLQMNSLKPEDTAVYYCAADYPATPDDDYWGQGTQVTVSS,high polyreactivity
7,QVQLVESGGGLVQAGGSLRLSCAASGIIFQAYAMGWYRQAPGKERELVAAISYSGGSTYYADSVKGRFTISRDNAKNTVYLQMNSLKPEDTAVYYCAATFYGYFDSVFSWGYYYWGQGTQVTVSS,low polyreactivity
8,QVQLVESGGGLVQAGGSLRLSCAASGIIFQAYDMGWYRQAPGKERELVAAISYSGGSTYYADSVKGRFTISRDNAKNTVYLQMNSQKPEDTAVYYCAATFYGYFDSVFSWGYYYCGQGTQVTVSS,low polyreactivity
9,QVQLVESGGGLVQAGGSLRLSCAASGIIFQFYAMGWYRQAPGKERELVAAISRSGGITHYADSVKGRFTISRDTAQNTVYLQMNSLKPEDTAVYYCAAVRQAYPRLDYWGQGTQVTVSS,high polyreactivity
10,QVQLVESGGGLVQAGGSLRLSCAASGIIFQFYAMVWYRQAPGKERELVAAISRSGGITHYADSVKGRFTISRDNAKNTVYLQMNILKPEDTAVYYCATRGTRSYFRTFYYWGQGTQVTVSS,high polyreactivity
11,QVQLVESGGGLVQAGGSLRLSCAASGIIFQGNAMGWYRQAPGKERELVAVITSRGGSTYYADSVKGRFTISRDNAKNTVYLQMNSLLPEDTAVYYCAKAKRYPQYYYWGQGTQVTVSS,high polyreactivity
12,QVQLVESGGGLVQAGGSLRLSCAASGIIFQNYDMGWYRQAPGKERELVAAITSGVSTYYADSVKGRFTIARYNAKNTVYLQMNSLKPEDTAVYYCAVVGGFRWIRMEYWGQGTQVTVSS,low polyreactivity
13,QVQLVESGGGLVQAGGSLRLSCAASGIIFQRNDMGWYRQAPGKEREFVAAITYIGGSTYYADSVKGRFTISRDNAKNTVYLQMNSLKPEDTAVYWGQGTQVTVSS,low polyreactivity
14,QVQLVESGGGLVQAGGSLRLSCAASGIIFQTYAMGWYRQAPGKERELVAAISRTGGSTYYADSVKGRFTISRDNAKITVYVQMHSLKPEDTAVYSCAAPRFAAPLRIGYVWGQVTQVTVSS,high polyreactivity
15,QVQLVESGGGLVQAGGSLRLSCAASGIIFQYYAMGGYRQAPGKERELVAAISWSGGSTYYADSVKGRFTISRDNAKNTVYLQMNSLKPEDTAVYYCAARSRSFWPYEGDYWGQGTQVTVSS,low polyreactivity
16,QVQLVESGGGLVQAGGSLRLSCAASGIIFRANAMGWYRQAPGKERELDAAISGRGSSTTYADSVKGRFTISRDNAKNTVYLQINSLKPEDTAVYYCAARLPYNNQVPGYYWGQGTQVTGSS,high polyreactivity
17,QVQLVESGGGLVQAGGSLRLSCAASGIIFRANAMGWYRQAPGKERELVAAISGRGSSTTYADSVKGRFTISRDNAKNTVYLQMNSLKPEDTAVYYCAAAGWSARGYNYWGQGTQVTVSS,high polyreactivity
18,QVQLVESGGGLVQAGGSLRLSCAASGIIFRANAMGWYRQAPGKERELVAAISGRGSSTTYADSVKGRFTISRDNAKNTVYLQMNSLKPEDTAVYYCAADTWYPGYYAYDYWGQGTQVTVSS,high polyreactivity
19,QVQLVESGGGLVQAGGSLRLSCAASGIIFRAYAMGWYRPAPGKERELVAAISRSGGSTYYADSVKGRFTISRDNAKNTVYLQMNSLKQEDTAVYYCAADTVWYLYYYWGQGSQVTVSS,high polyreactivity
20,QVQLVESGGGLVQAGGSLRLSCAASGIIFRFYSMGWYRQAPGKERELLAVITSRSDSTYYADSVKGRFTISRDNAKNTVYLQMNSLKPEDTAVYYCNARYPWYYRYSTYDYWGQGTQVTVSS,high polyreactivity
21,QVQLVESGGGLVQAGGSLRLSCAASGIIFRGNVMGWYRQAPGKERELVAAISGSGGRTYYADSVKGRFTISRDNAKNTVYLQMNSLKPEVTAVYYCNADKAIRYDYWGQGPQVTVSS,high polyreactivity
22,QVQLVESGGGLVQAGGSLRLSCAASGIIFRKNAMGWYRQAPGKERELVAAISSTGASTNYADSVKGRFTISRDNAKNTVYLQMNSLKPEDTAVYYCAASRTRYWKYDYWGQGTQVTVSS,high polyreactivity

row,Sequence,polyreactivity (PSR sort gate)
1,QVQLVESGGGLVQAGGSLRLSCAASGIIFRNNAMGWYRQAPGKEREFVARISKRGGSTYYADSVKGRFTISRDNAKNTVYLQQNSLKPEDTAVYYCAKGYGSGSYLYDYWGQGTQVTVSS,high polyreactivity
2,QVQLVESGGGLVQAGGSLRLSCAASGIIFRPYAMGWYRQAPGKERELVAAISRGGRTKYADSVKGRFTISRDNAKNTVYLQMNSLKPEDTAVYYCAAQFRFTRLVGVAAEYDYGGQGTQVTVSS,low polyreactivity
3,QVQLVESGGGLVQAGGSLRLSCAASGIIFRPYAMGWYRQAPGKERELVAAITWSVTSTYYADSVKGRFTISRDNAKNTVYLQMNSLKPEDTAVYYCAATCSYGVSWYEYWGQGTQVTVSS,high polyreactivity
4,QVQLVESGGGLVQAGGSLRLSCAASGIIFRRYARGWYRQAPGKERELVAAITRGGITYYADSVKGRFTISRDNAKNTVYLQMNSLKPEDTAVYYCAATYSGTYSLGGGYDYWGQGTQVTVSS,low polyreactivity
5,QVQLVESGGGLVQAGGSLRLSCAASGIIFRSYAMGWYRQAPGKERELVAGISRRGGSTYYADSVKGRFTISRDNAKNTVYLQMNSLKPEDTAVYYCAKEVAYKPTGYDYWGQGTQVTVSS,high polyreactivity
6,QVQLVESGGGLVQAGGSLRLSCAASGIIFRVYTMGWYRQAPGKERELVAGISSGDSTSYADSVKGRFTISRDNAKNTVYLQMNSLKPEDTEVYYCNADGKAGGDYDYWGQGTQVTVSS,low polyreactivity
7,QVQLVESGGGLVQAGGSLRLSCAASGIIFRWNAMGSYRQAPGKERELVAAITRSGGSTYYADSVKGRFTISRDNAKNTVYLQMNSLKPEDTAVYYCAAEYYAPRYKFDYWGQGTQVTVSS,high polyreactivity
8,QVQLVESGGGLVQAGGSLRLSCAASGIIFRWYAMGWYRQAPGKERELLAAITSSGGRTYYADSVKGRFTISRDNAKNTVYFQMNSLKPEDSAVYYCAASYYIVGWDPYDYWGQGTQVTVSS,high polyreactivity
9,QVQLVESGGGLVQAGGSLRLSCAASGIIFRWYTKGWSRPAPGKERELVAAINYSSGDTYADSEKGRFTISRDNAKNTVYLQMNILKPEDTAVYYCAAEDPEYATYWYKYGYWGQGTQVNVSS,low polyreactivity
10,QVQLVESGGGLVQAGGSLRLSCAASGIIFRYAMGWYRQAPGKERELVAAIRKSDGSTYYADSVKGRFTISRDNAKNTVYLQMNSLKPEDTAVYYCNAVTVGLYDYWGQGTQVTVSS,high polyreactivity
11,QVQLVESGGGLVQAGGSLRLSCAASGIIFRYAMGWYRQSPGKERELVARITVGSTYYADSVKGRFTISRDNAKNTVYLQMNSLKPEDTAVYYCNKDSGEDDRWPYDYWGQGTQVTVSS,low polyreactivity
12,QVQLVESGGGLVQAGGSLRLSCAASGIIFRYYAMGWYRQAPGKERELVAAISRSGARTYYADTVKGRFTISRDNAKNTVFLQRNSLKPEDTAVYYCATDPTSGRFYYWGQGTQVTVSS,high polyreactivity
13,QVQLVESGGGLVQAGGSLRLSCAASGIIFRYYTMGWYRQAPGKERELVAAISWGGGSTYYADSVKGRFTISRDYAKNTVYLQMNSLKPEDTAVYYCAAEGLTYYNYREWLYYYWGQGTQVTVSS,high polyreactivity
14,QVQLVESGGGLVQAGGSLRLSCAASGIIFSEYAMGWNRKAPGKERELVAAISKSGGRTYYADSVKGRFTISRDNAKNTVYLQMNSLKPEDTAVYYCAARHAPILGDHGMKYWGQGTQVTVSS,high polyreactivity
15,QVQLVESGGGLVQAGGSLRLSCAASGIIFSEYAMGWYRQAPGKERELVAAISKSGGRTYYADSVKGRFTISRDNAKNTVYLQMNSLKPEDTAVYYCAARHAPILGDHGDYDYWGQGTQVTVSS,high polyreactivity
16,QVQLVESGGGLVQAGGSLRLSCAASGIIFSFYAMGWYRQAPGKERELVADITLSGGRTYYADSVKGRFTISRDNAKNTVYLQMNSLKPEDTAVYYCNADTYERGDYWGQGTQVTVSS,high polyreactivity
17,QVQLVESGGGLVQAGGSLRLSCAASGIIFSGNAMGWYRQAPGKERELVAAITRGGRTYYADSVKGRFTISRDNAKNTVFFQFNSLKPEDTAVYYCGAGYPYSYREYYYWGQGSQVTVSS,high polyreactivity
18,QVQLVESGGGLVQAGGSLRLSCAASGIIFSGNAMGWYRQAPGKERELVAAITRGGRTYYADSVKGRFTISRDNAKNTVYLQMNSLKPEDTAVYYCAAGYPYSYRDYYYWGQGTQVTVSS,high polyreactivity
19,QVQLVESGGGLVQAGGSLRLSCAASGIIFSGYAMGWYRQAPGKERELVAVISSSGGGTYYADSVKGRFTISRDKAKNTVYLQMNSLIPEDTAVYYCAARGREAIHGYWGQGTQVTLSS,high polyreactivity
20,QVQLVESGGGLVQAGGSLRLSCAASGIIFSGYVMGWYRQAPGKERELVAAIRWNGGNTYYADSVKGRFTISRDNAKNTVYLQMNSLKPEDTAVYYCAGRVRRPYSSLDYWGQGSQVTVSS,high polyreactivity
21,QVQLVESGGGLVQAGGSLRLSCAASGIIFSIYVMGWYRQAPGKERELVAAISSNGGSTYYADSVKGRFTISRDNAKNTVYLQMNSLKPEDTAVYYCAAVSRSHYYYWGQGTQVTVSS,high polyreactivity
